A protein production outcome set (Wang et al. 2014)

Test: label from the status in PepcDB records

Question: Which protein production does the source give for “SLDDDDYPAYTMGRAAAILGTTPAFLRALGDARLITPLRSEGGHRRYSRYQLRIAARARELVDQGTPVEAACRIIILEDQLEDALRLNEEMRRSSDQPTA” here?
Answer: failed

Question: Which protein production does the source give for “GHMAIQRRIRRVKTVQMTTNSPIHRSGSVLEPGNWQEYDPFLLLMEDIFERGTFDVHPHRGIETVTYVISGELEHFDSKAGHSTLGPGDVQWMTAGRGVVHKEDPASGSTVHSLQLWVNLPSAYKMTEPRYQNLRSKDMPVRKEEGATIRVFSGSSKGVKAPTKNIVPVTMVEMIVEPGTTVVQDLPGHYNGFLYILEGSGVFGADNIEGKAGQALFFSRHNRGEETELNVTAREKLRLLLYAGEPVNEPVVAYGPFVMNTPEQIREAIRDYQEGRFGR” here?
Answer: not failed

Question: For “MKNFWKKYHKWVGLFFSFFILMFCFSGIVLNHRTLFSKAEVSRNWMPESYHYKNWNNGIIKGTLRLPDGKILAYGNAGVWKTDSCFATFADFNRGLAEGIDNRKISNIVRVANNDIWCAGLYSIYLLNHDSWKEYPIAGNDERISDITQRGDTLVILTRSYLYTSVSPYDEFRKTELKTPENYSPKTSLFRTIWLLHSGELFGTPGKLAVDFLGVVLIVLSATGIIYTLLPPFIRRRHRKRLPVKTQAKALKTSLNWHNKLGTWLIGLTLLLSVTGMCLRPPLMIPFVLVNTRPVPGSTLDSDNPWHDKLRSIRWDASRNVWLLSSSMGFYRINDLQLPPVKLKQTPPVSPMGVNVFHPQSPDEWLIGSFSGLFVWNPSTGTVLDYYTGQPPAAVHGRPLGGSLVNGFTDDLVTREVIFEYDNGARNKENNLVLPAMPDLIKQQPMSLWNFCLELHVGRCYSPFLGVFSDLFVFISGLLLTLILISGYIVYKRHHKRSKKIRMH”, which protein production is on record?
Answer: failed

Question: For “MIKFYQYKNCTTCKKAAKFLDEYGVSYEPIDIVQHTPTINEFKTIIANTGVEINKLFNTHGAKYRELDLKNKLQTLSDDEKLELLSSDGMLVKRPLAVMGDKITLGFKEDQYKETW”, which protein production is on record?
Answer: not failed

Question: With “MLIFKIFRRSEWDDFRRAGATAGAPVDLADGYIHFSTAAQVAETAAKHFTAESDLVLVAIDPDRAGPDLKWEPSRGEQLFPHLYRRLTLDDVVWDKSLPLGATGHIFPEGLWLEHHHHHH” as the sequence, how does the protein production read?
Answer: not failed

Question: With “MSDPITLNVGGKLYTTSLATLTSFPDSMLGAMFSGKMPTKRDSQGNCFIDRDGKVFRYILNFLRTSHLDLPEDFQEMGLLRREADFYQVQPLIEALQEKEVELSKAEKNAMLNITLNQRVQTVHFTVREAPQIYSLSSSSMEVFNANIFSTSCLFLKLLGSKLFYCSNGNLSSITSHLQDPNHLTLDWVANVEGLPEEEYTKQNLKRLWVVPANKQINSFQVFVEEVLKIALSDGFCIDSSHPHALDFMNNKIIRLIRYR” as the sequence, how does the protein production read?
Answer: failed

Question: With “MKHVGDDVVAIISQDGKVIREIPLTGHKGNEQFTIKGKGAQYNLMEVDGERIRIKEDNSPDQVGVKMGWKSKAGDTIVCLPHKVFVEILEHHHHHH” as the sequence, how does the protein production read?
Answer: not failed

Question: For “MSWMQNLKNYQHLRDPSEYMSQVYGDPLAYLQETTKFVTEREYYEDFGYG”, which protein production is on record?
Answer: failed

Question: For “MAQRQPHSPNQTLISITNDTESSSSVVSNDNTNKGWSGDNSPGIEALCAIYITYAVIISVGILGNAILIKVFFKTKSMQTVPNIFITSLAFGDLLLLLTCVPVDATHYLAEGWLFGRIGCKVLSFIRLTSVGVSVFTLTILSADRYKAVVKPLERQPSNAILKTCVKAGCVWIVSMIFALPEAIFSNVYTFRDPNKNMTFESCTSYPVSKKLLQEIHSLLCFLVFYIIPLSIISVYYSLIARTLYKSTLNIPTEEQSHARKQIESRKRIARTVLVLVALFALCWLPNHLLYLYHSFTSQTYVDPSAMHFIFTIFSRVLAFSNSCVNPFALYWLSKSFQKHFKAQLFCCKAERPEPPVADTSLTTLAVMGTVPGTGSIQMSEISVTSFTGCSVKQAEDRF”, which protein production is on record?
Answer: failed

Question: Which protein production does the source give for “ATEATNATNNQSTQVSQATSQPINFQVQKDGSSEKSHMDDYMQHPGKVIKQNNKYYFQTVLNNASFWKEYKFYNANNQELATTVVNDNKKADTRTINVAVEPGYKSLTTKVHIVVPQINYNHRYTTHLEFEKAIPTLADAAK” here?
Answer: not failed

Question: With “MKNFSRTGKILFSYGAIQMFWGLVMLNVNVFEHTSETIKYVILITGIVFCIISNFFKEHKSHTIT” as the sequence, how does the protein production read?
Answer: failed

Question: Which protein production does the source give for “MRGETELKQERSIALPLAISIIAISFAAVFVKMSSAPSSILSMYRLWIIVLLMLPIVWKKREEFSKIQIKDWGFLIGSGFFLALHFLLWFESLKHTTVASSTIILALQPIVSLVGGFFLFKERTTYSAIATMGIAILGVVCIGWGDLGLSEQAIYGDILSFLSVIAVVGYLFIGQTTVKKVSHWIYSFTVFAFAGIFMGIYNIVLQVPFTGYTKWDWTVFLLLAVVPTVSHVINNWLLNYVNATTISMSILGEPVGASILAFFLLGERLNAMQMIGSILVLFGVSVFLLQQQKRTAKNVVNEPVYTQEL” here?
Answer: failed

Question: With “MRPRRWFAILVCLCCLVTAAWPAEVKGENKKKERLAVVTVDRVNVRQGPGVPYRPLANVHRGETYRLIDIKDGWLKIEWKKNKIGWIAASYAAPVREMEIVQEDRLRLRQEPGLDGRIIGHLAQGDQVIVIKEKGEWKQIVTKKAVGWVAASYLADAESPTGSRQTGVVTADSLNVRVAPSLDAERIGRLLHGERVEIVETKRDWYKIVTRSGLGGWVAAEYIEMKNGQAVGNPEEAVAESASPAAVDLVTIQGNGPRQYVKKWTRTPVQVLAGKTIVLDAGHGGKDGGAESVNGVTEKTLTMETAERLKEKLETYGARVVLTRVNDDYVPLSARVATARLYQADAFISLHYDSAEDEDASGITAYYYDRFADYGLAQSFQGPFSKLSALPFRGLAFGNYYVLRENERPSVLLELGYLSNRSDAEVVATDSYQETVTTAIVNAVRHYFQ” as the sequence, how does the protein production read?
Answer: failed

Question: For “MQWIYLCFAILFEVAGTTAMKLSDGLTKLVPSILIFVFYVVSFAFLSFALKGMEMSVAYAVWSGMGIVTITTIGFIYFGESINIIKILAILFILVGVVILNFNSTAHEAKKKEMVEERIH”, which protein production is on record?
Answer: failed

Question: Which protein production does the source give for “MRKVLMFLSTALLLAILSLSFTGLDLKAKAASDLYPLPAPIIDVFPDDGLAKDMAKNLNKDSVNDVIDQDDLDALTGLGFETSTITNDSMQLLERAMFNNVTDVSIMEFGAKLTEFPDITTIPHLKTLFFADPPGRLTRNLSLPNYQNYPEMDTITMSGNNLIGSIPDFTGMPALKQLYMSEMLITSDELPNFNNIPLLITLDLSSNQLTTIPDFQNIPNLTFLDLNANLLTNTPDFQNLPKLTDLNLRHNNLTGTMVNYTNLPSLESLNLDYNFLTELPSNVLDTIYVQSQNGELPDQTINQGDTCTIDLPIYFQMEETNMLVSPEVTGEYIGISVIQLPTTVNEEGNTITVDTSALSPGEYKLDVSYNHNYATGGVCSYDWNVTIN” here?
Answer: failed

Question: With “MARYHIETYGCTSNRGESRDIERRLRDAGHHKVETAADADVAILNTCTVVEKTERNMLRRAKELADETADLIVTGCMALAQGEAFADADVDAQVLHWDDVPEAVTNGECPTTTPDAEPILDGVVGILPIARGCMSNCSYCITKQATGRVDSPPVEENVEKARALVHAGAKEIRITGQDTGVYGWDTGERKLPELLERIATEIEGEFRVRVGMANPGGVHGIREELAAVFAEHDEIYNFLHAPVQSGSDDVLADMRRQHEVSQYRDIVETFNDTLGEWTLSTDFIVGFPTEDDDDHEASMDLLRETRPEKINVTRFSKRPGTDAAELKGLGGQTKKDRSKAMTELKMDVVGEAHESMVGTRRDVLVVEEGTGDSVKCYDGAYRQVIVQNATDHGLEPGDFATVEVTSHQTVYAFAEPVDAAAVDDGPAETTAD” as the sequence, how does the protein production read?
Answer: failed

Question: For “MNHTADNCIFCKIIDGQILCSKVYEDEHVLAFLDISQVTKGHTLVIPKVHKQDIFALTPEIASHIFSVVPKIANAIKAEFNPVGFNLLNNNGEKAGQTVFHFHLHLIPRYGENDGFGAVWKSHQNEYTMENLQNIASTIANSVK”, which protein production is on record?
Answer: not failed

Question: For “MPNNHLTAAAPAQGREAIASPMERFSQAMVAWAEKWFPDAYVFVVVACAVVALGAILHGGDPLAVSKAFGEGFWSIIPLTMQMAMVAITGYVLALSPPVARLLRALARVPSTPRGAVVFIGTLSILLSLVNWGLSLIFSGLLVREMARRNDLRLDYRAAGAAGYLGLGCGFTLGMSSSAAQLQATPASIPASLMPITGVIGFSETILTWQNLVVVILVTVVSGLVCYFTAPSPERSLTAQDLGVDLTEPEAQAAQRQRPGDYLEFSPWLTVAVVGLASGWLYLTFRSGNPFITMSQLNTYNFVFLLLGLLLHWRPRSFLESFGRAMPSIGGVMLQFPFYGGIGYVLTKVANVQGHTLSDAIAHWFVSLAHDSSVFSILVSIYSAFLGFFIPSAGGKWVIEAPYIMDAANQIQAHLGWTVMVYNIAETLPNFINPFWMLPLLGILRLKSKDLVGYTAMQFLVHFPIVVAAGAILMHTFSYVPPVIPGQ”, which protein production is on record?
Answer: failed

Question: For “MASSSSTYRSSSSSDGGNNNPSDSVVTVDERKRKRMLSNRESARRSRMRKQKHVDDLTAQINQLSNDNRQILNSLTVTSQLYMKIQAENSVLTAQMEELSTRLQSLNEIVDLVQSNGAGFGVDQIDGCGFDDRTVGIDGYYDDMNMMSNVNHWGGSVYTNQPIMANDINMY”, which protein production is on record?
Answer: failed

Question: For “MMLITERRSPFYPNIQNVPPSVIRKLVKNKAITLIDVRQPWEYEDHHIPGSILLPLDYFKELFPLVLSKNNLVKNGVAIICEHANRSTWLVYTEPSLFKEVKVYNMLGGIELWMIMGYEIEKGMDDNGTLWYKLLTKNLGLEHHHHHH”, which protein production is on record?
Answer: failed

Question: For “MGMPAGPYLLTPPGVYAPQHDTDLLARALRREDIDTSTEVLDLGTGSGALAVHAARLGARVTAVDISRRAVLTARLNALLAGRRVTVRRGDLTAAVPGRSYDLVVSNPPYVPSPSARLPSRGAARAWDAGHDGRAFVDRICDTAPAALRAGGALLIVHSALCGTRPTLDRLAAAGLDASVTDRAFVPFGPVLRARRAWLRRQGLLTDENLEELVVIRAEHS”, which protein production is on record?
Answer: failed

Question: With “MNIMLFHSTYGLRPAVRAAADRLRAAGHEVWTPDLLEGRTFETVEEGMAFCDGIGKDELLKRAVLAAAPYSERGLVYAGFSLGASIAQTLALGDEKARGLLLLHGTSDIAESASVDELPVQLHVAEPDAFETDDWLGAWYLQLRRAGADVEVYRYAGAGHLYTDPDLPDYDAEAAEATWKVALGFLDSL” as the sequence, how does the protein production read?
Answer: not failed

Question: Which protein production does the source give for “MRRVTVPTAPPAYADIGYPMSMLPIKSSRAVSGIQQKQEVLPGMDTPSNSMRPVADDNIDHTSHTPNGVASAFILEATVNVISGPKVLMKQIPIWLPLGIADQKTYSFDSTTAAIMLASYTITHFGKANNPLVRVNRLGQGIPDHPLRLLRMGNQAFLQEFVLPPVQLPQYFTFDLTALKLVTQPLPAATWTDETPSNLSGALRPGLSFHPKLRPVLLPGKTGKKGHVSDLTAPDKIQTIVNLMQDFKIVPIDPAKSIIGIEVPELLVHKLTGKKMSQKNGQPIIPVLLPKYIGLDPISPGDLTMVITPDYDDCHSPASCSYLSEK” here?
Answer: not failed

Question: Which protein production does the source give for “RDIGKESLEKAPEVELVNSAEEGNAVVLDIRSPDEEDESPLEIVGVEVKHLPFYKLATQFGDLDQSKTYLLYCSRGVMSRLQALYLQEQGFNNVKVYR” here?
Answer: failed

Question: Which protein production does the source give for “MVLLTMTKRLFKGLLAVSLAVSLHGGEVKEKKPVKPVKEDPQELAAKRVEAFSRFSNVVSEIEKKYVDKISISEIMTKAIEGLLSNLDAHSAYLNEKKFKEFQAQTEGEFGGLGITVGMRDGVLTVIAPLEGTPAYKAGVKSGDNILKINNESTLSMSIDDAINLMRGKPKTPIQITVVRKNEPKPLVFNIIRDIIKLPSVYVKKIKETPYLYVRVSGFDKNVTKSVLEGLKANPKAKGIVLDLRGNPGGLLNQAVGLSNLFIKEGVLVSQKGKNKEENLEYKANGRAPYTNLPIAVLVNGGSASASEIVAGALQDHKRAVIIGEKTFGKGSVQMLLPVNKDEAIKITTARYYLPSGRTIQAKGITPDIVIYPGKVPENENKFSLKEADLKHHLEQELKKIDDKTPNSKEADKDKKNEEEKEITPKMINDDIQLKTAIDSLKTWSIVDEKMDEKAPKKK” here?
Answer: failed
